Tested on: collagen IV (BD Biosciences)

activated MMP-9 (Chemicon)
alignment of liquid crystal on the surface (zymography; enzymatic digestion of the protein substrate): after 30 minutes incubation with 1 pg MMP-9, the collagen IV has been digested and the liquid crystals align on the exposed SAM
